Consider one protein from PMC9018529 (Molecular microbiology, 2022).

This data set concerns the molecule itself. Briefly: SEC. (Size exclusion chromatography separates by hydrodynamic size, large species first.)

B1: SymE (Escherichia coli MG1655), untagged after TEV cleavage of His6-TEV-SymE (natural protein, E. coli MG1655, UniProt P39394 1-113, looked up)
chain: MTDTHSIAQPFEAEVSPANNRHVTVGYASRYPDYSRIPAITLKGQWLEAAGFATGTAVDVKVMEGCIVLTAQPPAAEESELMQSLRQVCKLSARKQKQVQAFIGVIAGKQKVA
As for B1, the stoichiometry N (usually a count of units in the complex or per binding partner) was roughly 4.
